The nanobody polyreactivity screen of Harvey et al. (2022)

Test: yeast display, Sf9 membrane polyspecificity reagent, FACS + sequencing; frameworks hold sequencing errors
Method in brief: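 Genes from sorted yeast were amplified by colony PCR, read by MiSeq 2 × 250 sequencing and filtered on CDR length. These cells carried a synthetic nanobody library in Saccharomyces cerevisiae BJ5465 and were sorted by FACS into low and high (top ~1%) gates on anti-HA and streptavidin fluorescence. Polyreactivity is labelled according to the gate of origin.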

Sequence | polyreactivity (PSR sort gate)
QVQLVESGGGLVQAGGSLRLSCAASGRIFGNYAMGWYRQAPGKERELVAAISGGGSTYYADSVKGRFTISRDNAKNTVYLQLNSLKPEDTAVYYCAARFLWSVFGGKGGYWGQGTQVTVSS | low polyreactivity
QVQLVESGGGLVQAGGSLRLSCAASGRISWVYPMGWYRKAPGKERELVAAITFSGGSTYYADSVKGRFTISRDNAKNSVYLQMNSLKPEDTAVYYCAADVLAIYSHRYYRYDSWGQGTQVTVSS | high polyreactivity
QVQLVESSAGLVQAGGSLRLSCDASGSTFFYYAMGWYRQAPGKERELVAAISLSDGNTYYADSVKGRFTISRDNAKNTVYLQMNSLKPEDTAVYYCNRVGSQSMKYWGQGTQVTVSS | low polyreactivity
QVQLVESGGGLVQAGGSLRLSCAASGNIFYGYAMGWYRQAPGKERELVAAITSDGITYYADSVKGRFTISRDNAKNTVYLQMNSLKPEDTAVYYCNVTQLYEYYKYYYWGQGTQVTVSS | low polyreactivity
QVQLVESGGGLVQAGGSLRLSCAASGFTFYYNAMGWYRQAPGKERELVASIRSGGSTKYADSVKGRFTISRDNAKNTVYLQMNSLKPEDTAVYYCAKERYHISFFYQMVYWGQGTQVTVSS | low polyreactivity
QVKRVESGGGLVQAGGSLRLSCAASGSTFYDYAMGWYRPAHGKQRELVAAINGNGDSTYYADSVKGRFTISRDNAKNTVYLQMNSLKPEDTAVYYCAAYLGWGYDYWGQGTQVTVSS | low polyreactivity
QVQLVESGGGLVQAGGSLRLSCAASGYTFQKYGMGWYRQAPGNERELVAAITRSSGNTYYADSVKGRFTISRDNAKNTVYLQMNSLKPEDTAVDYCAAYYWGGVKYNYWGQGTQVTVSS | high polyreactivity
QVQLVESGGGVVQAGGSLRLSCAASGFIFPLYTMGWSRQAPGKERELVAAITGSGGSTYYADSVKGRFTISRDNAKNTVYLQMNSLKPEDTAVYYCAKDYTYGMDWGQGTQVTVSS | low polyreactivity
QVQLVESGGGIVQAGGSLRLSCAASGSTFVTHAMGCYRQAPGKEREFVAAISWNSTSTYFADSVKGRFTISRDHAKNTVYLQMNSLKPEDTAVYYCNATTFAFSPSLKGAYGYWGQGTQVTVSS | low polyreactivity
QVQLVESGGGLVQAGGILRLSCAASGRIFAYYAMGWSRQAPGKERELVAAISGGGGSTYYADSVKGRFTISRDNAKNTVYLQMNSLKPEDTAVYYCAAKSSRYDYYYWGQGTQVTVSS | high polyreactivity
QVQLVESGGGLVQAGGSLRLSCAASGRTFTRYTMGWYRQAPGKERELVAGITRSGGSTYYADSVKGRFTISRDNAKNTVYLQMNSLKPEDTAVYYCAARLSGRYDSQDNYWGQGTQVTVSS | high polyreactivity
QVQLVESGGGLVQAGGSLRLSCAASGSTFYYYVMGWYRQAPGKERELVAVISKSGGSTRYADSVKGRFTISRDNAKNTVYLQMNSLKPEDTAVYYCAADGLRLVPGYKYDYWGQGTQVTVSS | high polyreactivity
QVQLVESGGGLVQAGGSLRLSCAASGFIFTYYAMGWYRPAPGKERELVATISSGGGSTYYADSVKGRFTISRDNAKNTVYLQMNSLKPEDTAVYYCAASRRITGIRYLNRYEYWGQGTQVTVSS | high polyreactivity
QVQLVESGGRLVQAGGSLRLSCAASGSTFQFNVMGWYRQAPGKERELVAAITSGASTYYADSVKGRFTISRDNAKNTVYLQMNSLEPEDTAVYYCAVDYSFRYDYVQRYYYWGQGTQVTVSS | high polyreactivity
QVQLVESGGGLVQAGGSLRLSCAASGRIFGYNAMGWYRQAPGKERELVAAITQSGGTTYYADSVKGRFTISRDYAKNTVYLQMNSLKPEDTAVYYCARGTRYPNNPFDYWGLGTQVTVSS | high polyreactivity
QVQLVESGGGLVQAGGSLRLSCAGSGSSFSNYAMRGYRQATGKERELVAVITTGASTYYADSLKGRFTISRDNAKNTVYLQLNSLKPEDSAVYACAKGKISRETPGIYWSYSYGYWGQGTQVTVSS | high polyreactivity

Sequence | polyreactivity (PSR sort gate)
QVQLVESGGGLVQAGGSLRLSCAASGSNFTNAMGWYRQAPGKERELVASIDANAGDTHYADSVKGRFTISRDNAKNTVYLQLNSLKPEDTAVYYCNADVTERLWTGEDDYWGQGTQVTVSS | low polyreactivity
QVQLVESGGGLVQAGGSLRLSCAASGFIFSVYTMGWYRQAPGKERELVASITGSGGDTYYADSVKGRFTISRDNAKNTVYLQMNSLKPEDTAVYYCNVDAGFHDSYHAWNFRYDYWGQGTQVTVSS | low polyreactivity
QVQLVESGGGLVQAGGSLRLSCAASGRTFSRYAMGCYRQAPGKERELVAVITSSGASTYYADSVKGRFTISRDNAKNTVYLQMNSLKPEDTAVYYCAADRYYRGRRMNYWRQGTQVTVSS | high polyreactivity
QVQLVESGGGLVQAGGSLRLSCAPSGSTFPRNAMGWYRQAPGKERELVAAISYSGGRTYYADSVKGRFTISRDNAKNTVSLQMNSLKPEDTAVYYCAAQPWFTYYYWGQGTQVTVSS | high polyreactivity
QVQLVESGGGLVQAGGSLSLSCAASGSLFRPNAMGWYRQAPGKERELVAAITWSGDSTYYADSVKGRFTISRDNAKNTVYLQMNSLKPEATAVYYCAADFTYQGSSANDYWGQGTQVTVSS | low polyreactivity
QVQLVESGGGLVQAGGSLRLSCAASGSIFYGNTMGWYRQAPGKERELVAAIDYRGDSTYYADSVKGRFTISRDNAKNTVYLQMNSLKPEDTAVYYCAADQTPFGQVYYGTLSIRDYWGQGTQVTVSS | low polyreactivity
QVQLVESGGGLVQAGGSLRLSCAASGRTFANYAMGWYRQAPGKERELVAAISVSTVSTYYADSVKGRFTISRDNAKNTVYLQMNSLKPEDTAVYYCAATSPYKYWYRYNYWGQGTQVTVSS | high polyreactivity
QLQLVESGGGLVQAGGSLRLSCAASGGIFPYYAMGWYRQAPGKEMELVAAISRSGGITYYADSVKGRFTISRDNAKNTVYLQMNSLKPEDTAVYYCAALSRWRYKRYDYWGQGTQVTVSS | high polyreactivity
QVQLVESGGGLVQAGGSLRLSCAASGFTFYRNAMGWYRQAPGKERELVAAISRGGRTYYADSVKGRFTISRDNAKNTVYLQMNSLKQEDTAVYYCAADFYIKYSEFDYWGQGTQVTVSS | high polyreactivity
QVQLVESGGGLVQAGGSLRLSCAASAFILYFNAMGWYRQAPGKESDLVAAISRGDGYTYADSVKGRFTISRDNAKNTVYLLMNRLNPEDTEVYYCNAGLGVVVTLYVGSGYDSWGHGTQVTVSS | low polyreactivity
QVQLVESGGGLVQAGGSLRISCAASGIIFYLYTMGWYRQAPGKERELVAAITRGGSTYYADSVKGRFTISRDNAKNTVYLQMNSLKPEDTAVYYCAAKHGPGYRRWYDYWGQGTQVTVSS | high polyreactivity
QVQLVESGGGLVQAGGSLRLSCAASGFTFDSYAMGWYRQAPGKERELVAAITSGDSTHYADSVKGRFTISRDNAKNTVYLQMNSLKPEDTAVYYCAASGFPYPYDYWGQGTQVTVSS | low polyreactivity
QVQLVESGGGLVQAGGSLRLSSAATGSTSYNDMGWYRQATGKQRELGASITSSGDDTYYADSVKGRFTISRDNAKNTVYLQMNSLKPEDNAVYYCAAEDYHRHVGSYYVIDYDYWGQGTQVTVSS | low polyreactivity
QVQLVESGGGLVQAGGRLRLSCAASGRTFTYFAMGWYRKAPGKERELVAAISWDDDSTYYADSVKGRFTISRDYAKNTVYLQMNSLKPEDTAVYYCAASYYRQSGEYDYWGQGTQVTVSS | low polyreactivity
QVQLVESGGGLVQAGGSLRLSCAASGNIFVWNDMGWYRQAPGKERELVAAISLSGSSTYYADSVKGRFTISRDNAKNTVYLQMNSLKPEDTAVYYCATTRRVPGEYWGQGTQVTVSS | high polyreactivity
